Data as given in patent US20250034594A1, “RNA-GUIDED GENOME RECOMBINEERING AT KILOBASE SCALE” (THE BOARD OF TRUSTEES OF THE LELAND STANFORD JUNIOR …, priority 2021, published 2025).

B1: SSAP_189: SEQ ID NO: 358; Asaia sp. W19 (protein, listed as Asaia sp.)
chain: SNALATPTEKLRTQITSMTGEFRNALPSHIKPEKFQRVVMTVVQQNQGLMNADRKSLLASCLKCAADGLIPDGREAALVMFGQQVQYMPMLAGIQKRIRNSGEIASIQAHVIYENDHFIWHQGIDASIEHRPLFPGDRGKAIGAYAVAKFKDGSDPQFEVMDVAAIEKVRAVSRAGKSGPWVQWWDEMARKTVFRRLSKWLPMDTEAEDLMRRDDENDAQDVAAPTIRVEAEAPSKLDALEHDDDGVVLEETRELEGSAA
B2: SSAP_182: SEQ ID NO: 351; Lacrimispora sphenoides (protein)
chain: ADVKQELEKRAAGSGGQSVKLTKNMTIVDMVKALEPEIKRALPCILTPERFSRMALSAINNTPKLGECTPMSFIAALMNAAQLGLEPNTPLGQAYLIPYKNKGVLECQFQLGYRGLIDLAYRNERMQSIEAQVVYDNDEFSYELGLHPSLIHRPTFDEPGEIQAFYAIFRLDNGGFRFEVMSKNYVDSLCHALFKSIYFRFQSLEK
modifications: Lacrimispora sphenoides
B3: SSAP_115: SEQ ID NO: 284; Lacrimispora amygdalina (protein, listed as Lacrimispora amygdalina)
chain: AVDVKNELERKASGQNSQVKLTKSMTIADMVKALEPEIKRALPAVLTPERFTRMALSAINNTPELAGCTPMSFIAAMMNAAQLGLEPNTPLGQAYLIPYKNKGVLECQFQIGYKGMIDLAYRTGQIQVIQGQAVREFDYFEYQYGLDPKLVHRPGEEERGEITFIYGLFRLSNGGYGFEVSNKADMDAFAAKYSKSFGSKYSPWTENYEDMAKKTVIKRALKYAPVSVDFQKAMSMDETIKTEISVDMSEIRNECPEISENGEAA
B4: SSAP_89: SEQ ID NO: 258; Pantoea brenneri (protein, listed as Pantoea brenneri)
chain: SNQPPIASADLQKTQQSKQVANKTPEQTLVGFMNQPAMKSQLAAALPRHMTADRMIRIVTTEIRKTPQLAQCDQSSFIGAVVQCSQLGLEPGSALGHAYLLPFGNGRSKSGQSNVQLIIGYRGMIDLARRSGQIVSLSARVVRADDEFSFEYGLDENLVHRPGENEDAPITHVYAVARLKDGGTQFEVMTVKQVEKVKAQSKASSNGPWVTHWEEMAKKTVIRRLFKYLPVSIEMQKAVVLDEKAESDVDQDNASVLSAEYSVLESGDEATN
B5: SSAP_157: SEQ ID NO: 326; Pseudoflavonifractor sp. An184 (protein, listed as Pseudoflavonifractor sp.)
chain: ATEKAIQRATGRAPALENRPALQQYIKQMSGEIKKALPSVMTPERFTRIVLSALSTNPKLAETTPQSFLGAMMTAAQLGLEPNTPLGQAYLLPYWNSKANAYECQFQLGYKGLLDLAYRSGEISVIQAHVVYSEDQFSYSFGLKPELKHIPAGEERGEPVYVYAIFHTKDGGYGFEVCSIDDIRAHAQRYSKSFQNGPWQTNFEEMAKKTVLKRVLKYAPLKSEFLRGLAQDETIKQEISEDMYMVEAAYAEPDVSSAEND
B6: SSAP_9: SEQ ID NO: 178; Bet Gammaproteobacteria (protein)
chain: EKPKLIQRFAERFSVDPNKLFDTLKATAFKQRDGSAPTNEQMMALLVVADQYGLNPFTKEIFAFPDKQAGIIPVVGVDGWSRIINQHDQFDGMEFKTSENKVSLDGAKECPEWMECIIYRRDRSHPVKITEYLDEVYRPPFEGNGKNGPYRVDGPWQTHTKRMLRHKSMIQCSRIAFGFVGIFDQDEAERIIEGQATHVVEPSVIPPEQVDDRTRGLVYKLIERAEASNAWNSALEYANEHFQGVELTFAKQEIFNAQQQAAKALTQPLAS
modifications: Gammaproteobacteria
notes: Bet Gammaproteobacteria
B7: SSAP_264: SEQ ID NO: 433; Cereibacter johrii (protein, listed as Cereibacter johrii)
chain: TENTAQAPAAARQLTPIQAISQTLESDAFAPKISASLDGTGISPARFKRAALACLSRPEASYLVEKCDRGSIFTAVMNAAAAELELHPALGQAYIVPRGGQAVLQVGYKGFIALASRAGLAVEADVIYAGDRFSIRKGTNPDVSVEPELDPAKRGEWVAVYVITHYASGAKTLTFMTRAEVEAIRNRYSDAYKRGGAGAKTWNESPEEMAKKTCIRRASKLWPISVPGGGDDDGGEVIEADPAPVPAPRMRDVTPGGGLDRLAASL
B8: SSAP_304: SEQ ID NO: 473; Desulfobacteraceae bacterium (protein, listed as Desulfobacteraceae bacterium)
chain: ATPNTPTTTDAGDFLKKSEKSLKNYAVRKYDFTSFLKSAMIAINDNTTLSECLRTEAGKKSLFNAMRYAATTGLSLNPQEGKAALIGYKNKAGEMVLNYQIMKNGLIDLALSSGKVEFVTADLVRANDEFSIKKSASGDDYSFSPAIRDRGEVIGFVAALKLKGSATYVKWMSTEEVAEFRDKYSSMYKNRPDASPWTHSFNGMGIKTVMKALLRSVSISPDVDAAVKSDDYIEAEFTVHGTTADDAVTQLQTPSKPVKAEEGQGELL
B9: SSAP_166: SEQ ID NO: 335; Blautia sp. OF03-15BH (protein, listed as Blautia sp.)
chain: NVKEELAQKAEITQKEVKLKKSMSISDMIRALQPEIKKALPSVVTPERFIRMALSALNTTPKLAECSQISVLAALMNAAQLGLEPNTPMGQAYLIPFNNKGKMECQFQIGYKGLLELVYRNPAIQIIQAQTVYENDYFEYELGLNSRLIHRPELEDRGEIRLFYGLFKMVNGGYGFEVMSRQEMDQYAARYSKSFASGFSPWENNYEDMAKKTMIKRVLKYAPVKIETARALINDESIKLHLSEDMSEVENETVVDGQAEEKAA
B10: SSAP_306: SEQ ID NO: 475; Paenibacillus gorillae (protein, listed as Paenibacillus gorillae)
chain: LEAKHDALPSGFNAVRFVQNCKAYLPEVRNFERFNPDEIALQFLKGAILGLDFLAKECHVITEGSAARFQTDYKGEMKLAMKHSVRPLLNIYAKNVREGDVFRESVVEGRPVVSFDPLPFNNSKIIGSFAVAQFNDGGMDYESMSSTEIESIRTHYGKNPGSDTWEKSQGEMYKRTALRRLCKTIEIDFDAEQRLAFDAGSSFEFNREPRPQQQSPLNLESEVLTDEVEQG
B11: SSAP_300: SEQ ID NO: 469; Lactobacillus sp. (protein, listed as Lactobacillus sp.)
chain: NSLSGALNSRNQAGSPTSMIKNLMRSDSIKNRFDEVMGAKAPQFMASITNLVNSNQDLQHVDAMSVVASAMVAATLDLPIDPNLGYMYIVPYRGQAQPQMGYKGYIQLALRTGQYKHINALPVYDDEVKSWNPLTEELEYESSGTSHDNQTPAGYVGYFQLINGFEKTTYWTYDQINSHRQKFSKMSSKTDPTGVWKSNFDAMALKTVLRNLISKWGIMSIEMQQAFVKDERPQEFDHETGEIQDVQEVEAEEENVAPETQGSTDKKEE
B12: SSAP_294: SEQ ID NO: 463; Parageobacillus thermoglucosidasius (protein, listed as Parageobacillus thermoglucosidasius)
chain: AKQADLKNKLANKNSTNPTAYLKNLVYAPTVQQKFKEVLKEKAAHFLTSLISLVDSSPDLQKCNPMTIIASAMKAATLELPIDKNLGYAWIVPYKNVATFQIGYKGYIQLALRTGLYRSINVIEVYEGELRKWNRLTEELDIDEGARKSDHVIGYAGYFELTNGFIKRVYWSKEDIERHRKKFAKSDFGWENNYDAMAKKTVLRNMLSKWGILSIDMQRAYVNDIDDPEQTKEVIDVEWSEIIEEANVANSPEQQEIVFEQ
B13: SSAP_188: SEQ ID NO: 357; Propionibacterium freudenreichii (protein, listed as Propionibacterium freudenreichii)
chain: TQQMPIKAQGEPTKELQQKAAVDRFNATLHQMQNEIARALPKHMTGDRFVRIVLTEVRKNPTLALCDPLTMFGSLLTAAALGLEPGLNGECWLVPRKNHGTLEAQLQVGYRGVVKLFWQNPAATYLDTGYVCERDEFRFAKGLNPILEHTPAEGDRGKVVRYYAVAGLNTGARVFDVFTPAQIKTLRGGKVGSNGDIPDPEHWMERKTALLQVLKLMPKSTQLAAVPAADGRAHTISDAQQIFGGVDPTTGEVLDAEPVEDGAA

What follows are molecules tested on gene editing with dCas9 (assay: Screen of 322 new SSAP proteins, gene editing activity with dCas9 (Table 5)). Details: not given.
Format: cell-based
Design: dCas9 with SSAP activity: scale not given here
Summary of the method: (§1)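 Read-out is gene editing activity. Candidates come from sequence data mining, are made synthetically, and are tested alongside either nuclease-active Cas9 or catalytically dead dCas9.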

Going from B1 to B2, the “dCas9 with SSAP activity” value falls from −5.652 to −5.663.

Going from B3 to B4, the “dCas9 with SSAP activity” value rises from −5.725 to 0.225.

Compared with B5, B6 is lower in “dCas9 with SSAP activity” value: −5.734 for the first, −5.773 for the second.

Compared with B7, B8 is lower in “dCas9 with SSAP activity” value: −5.815 for the first, −5.835 for the second.

Going from B9 to B10, the “dCas9 with SSAP activity” value falls from −5.849 to −5.884.

Compared with B11, B12 is lower in “dCas9 with SSAP activity” value: −5.916 for the first, −5.929 for the second.

For B13, the “dCas9 with SSAP activity” value was −5.957.

Same assay, conditions: normalized

Compared with B1, B2 is higher in “dCas9 with SSAP activity (normalized)” value: −0.952 for the first, −0.742 for the second.

First: B3
Second: B4
The “dCas9 with SSAP activity (normalized)” value of the first is lower: −1.307 for the first, 0.240 for the second.

First: B5
Second: B6
The “dCas9 with SSAP activity (normalized)” value of the first is higher: −0.898 for the first, −1.126 for the second.

First: B7
Second: B8
The “dCas9 with SSAP activity (normalized)” value of the first is lower: −0.919 for the first, −0.886 for the second.

First: B9
Second: B10
The “dCas9 with SSAP activity (normalized)” value of the first is lower: −0.934 for the first, −0.905 for the second.

Going from B11 to B12, the “dCas9 with SSAP activity (normalized)” value rises from −1.175 to −1.096.

B13 was tested, and the “dCas9 with SSAP activity (normalized)” value was −0.867.

Each molecule was assayed on gene editing with Cas9 and dCas9 (assay: Screen of 322 new SSAP proteins, activity across all experiments (Cas9 and dCas9, Table 5)). Details: not given.
Format: cell-based
Design: scale not given here
Summary of the method: as §1

First: B1
Second: B2
The “Activity across all experiments” value of the first is higher: −3.046 for the first, −3.606 for the second.

Compared with B3, B4 is higher in “Activity across all experiments” value: −4.992 for the first, 0.393 for the second.

Going from B5 to B6, the “Activity across all experiments” value rises from −4.633 to −3.138.

Compared with B7, B8 is lower in “Activity across all experiments” value: −2.625 for the first, −4.262 for the second.

First: B9
Second: B10
The “Activity across all experiments” value of the first is higher: −3.593 for the first, −4.408 for the second.

Going from B11 to B12, the “Activity across all experiments” value falls from −5.191 to −6.515.

With B13 the “Activity across all experiments” value was −6.118.

What follows are molecules tested on gene editing with Cas9 (assay: Screen of 322 new SSAP proteins, gene editing activity with Cas9 (Table 5)). Details: not given.
Format: cell-based
Design: Cas9 with SSAP activity: scale not given here
Summary of the method: as §1

Going from B1 to B2, the “Cas9 with SSAP activity” value falls from −0.440 to −1.549.

Compared with B3, B4 is higher in “Cas9 with SSAP activity” value: −4.259 for the first, 0.562 for the second.

Going from B5 to B6, the “Cas9 with SSAP activity” value rises from −3.533 to −0.503.

First: B7
Second: B8
The “Cas9 with SSAP activity” value of the first is higher: 0.565 for the first, −2.690 for the second.

Going from B9 to B10, the “Cas9 with SSAP activity” value falls from −1.338 to −2.932.

First: B11
Second: B12
The “Cas9 with SSAP activity” value of the first is higher: −4.466 for the first, −7.102 for the second.

With B13 the “Cas9 with SSAP activity” value was −6.279.

Same assay, conditions: normalized

Going from B1 to B2, the “Cas9 with SSAP activity (normalized)” value rises from −2.025 to −1.689.

Going from B3 to B4, the “Cas9 with SSAP activity (normalized)” value rises from −0.733 to 0.533.

First: B5
Second: B6
The “Cas9 with SSAP activity (normalized)” value of the first is higher: −1.181 for the first, −1.380 for the second.

Compared with B7, B8 is lower in “Cas9 with SSAP activity (normalized)” value: 0.375 for the first, −0.447 for the second.

First: B9
Second: B10
The “Cas9 with SSAP activity (normalized)” value of the first is higher: −0.432 for the first, −2.350 for the second.

First: B11
Second: B12
The “Cas9 with SSAP activity (normalized)” value of the first is higher: −0.701 for the first, −2.102 for the second.

For B13, the “Cas9 with SSAP activity (normalized)” value was −0.994.
